Here are results for one molecule from PMC4514642, “^99mTc-3P-RGD2 molecular imaging targeting integrin αvβ3 in head and neck squamous cancer xenograft” (Journal of Radioanalytical and Nuclear Chemistry, 2015).

SMILES strings stand for the structures.

The nature of data set [1]: Biodistribution in CNE-1 tumor bearing mice. Format: in vivo. The settings on record: female, BALB/c nude, mouse, iv, total radioactivity, CNE-1 model, mean ± SD. The method, then: (§1) Female BALB/c nude mice (4–5 weeks of age, 15–20 g of weight) were purchased from the Department of Animal Experiment, Chinese Academy of Medical Sciences. The mice were subcutaneously implanted with 3 × 10^6 the HEP-2 cells (6 mice) or 2 × 10^5 the CNE-1 cells (6 mice) in 0.1 mL of saline into the right upper shoulder flanks. All procedures were performed in a laminar flow cabinet using the aseptic technique. Fifteen to nineteen days after inoculation, the tumor size was 1–1.5 cm, the tumor-bearing mice were used for biodistribution and imaging studies. Capital Medical University Animal Care and Use Committee approved the animal experiments.
(§2) The biodistribution of ^99mTc-3P-RGD2 in HEP-2 tumor bearing mice and CNE-1 tumor bearing mice was evaluated in groups of 3 mice per time point at 60 min and 120 min after injection of approximately 0.55–0.74 MBq of ^99mTc-3P-RGD2 in 0.1 mL saline via tail vein. From all mice, tumors and tissue samples (blood, heart, liver, spleen, kidney, lung, intestine and muscle) were harvested and weighed. Subsequently, radioactivity uptake was determined in γ-counter. Activity concentrations in the tissues were calculated as percentage of the injected dose per gram of tissue (%ID/g). To correct for radioactive decay, injection standards were counted simultaneously.

The subject of the next data set is HEP-2 tumor. Description: Biodistribution in HEP-2 tumor bearing mice. In kind it is in vivo, BALB/c nude mice. Particulars: stated for HEP-2 and CNE-1 tumor models together. The method, then: as §1, §2
Data set [2] can be described thus: Biodistribution in HEP-2 tumor bearing mice. Format: in vivo, BALB/c nude mice. The settings on record: female, BALB/c nude, mouse, iv, total radioactivity, HEP-2 model, mean ± SD. The method, then: as §1, §2
Data set [3] is described as follows: In vitro stability in serum by radio-HPLC. Particulars: fetal calf serum (result text); newborn calf serum / 2 mL human serum in method; 37 MBq, 37 °C, incubation 6 h (analysed at 0 min, 3, 4, 6 h); radio-HPLC radiochemical purity. Format: in vitro ADME. The protocol:
The stability of ^99mTc-3P-RGD2 in newborn calf serum was determined after incubating the radiolabeled compound (37 MBq) in 2 mL […] at 37 °C. Every 20 μL mixture was injected directly into the radio-HPLC to analyze the radiochemistry purity, which was followed by radiolabeling efficiency analysis at 0 min, 3, 4, and 6 h.
Fig. 2 Radio-HPLC analysis of ^99mTc-3P-RGD2 stability. ^99mTc-3P-RGD2 incubated in new-born calf serum for 0 min (a), 3 h (b), 4 h (c), 6 h (d) after labeling

Turning to `N=C(N)NCCC[C@@H]1NC(=O)[C@H](CCCCNC(=O)CCOCCOCCOCCOCCNC(=O)CC[C@H](NC(=O)CCOCCOCCOCCOCCNC(=O)c2ccc(NN)nc2)C(=O)NCCOCCOCCOCCOCCC(=O)NCCCC[C@@H]2NC(=O)[C@@H](Cc3ccccc3)NC(=O)[C@H](CC(=O)O)NC(=O)CNC(=O)[C@H](CCCNC(=N)N)NC2=O)NC(=O)[C@@H](Cc2ccccc2)NC(=O)[C@H](CC(=O)O)NC(=O)CNC1=O` [^99mTc-3P-RGD2, [^99mTc(HYNIC-3P-RGD2)(tricine)(TPPTS)], metal not drawn], the tissue to tissue ratio at 2 h in data set [1] (CNE-1 tumor / blood, 120 min p.i., read-out: tumor/blood ratio) is 2.49 ± 0.09; in data set [1] (CNE-1 tumor / muscle, 120 min p.i., read-out: tumor/muscle ratio), 1.86 ± 0.07; in data set [2] (HEP-2 tumor / blood, 120 min p.i., read-out: tumor/blood ratio), 6.37 ± 0.68; in data set [2] (HEP-2 tumor / muscle, 120 min p.i., read-out: tumor/muscle ratio), 4.44 ± 0.42. The tissue uptake at 1 h is 2.74 ± 0.51 %ID/g in data set [1] (CNE-1 tumor, 60 min p.i., tail vein 0.55–0.74 MBq, γ-counter, %ID/g, 3 mice per time point) and 6.25 ± 0.22 %ID/g in data set [2] (HEP-2 tumor, 60 min p.i., tail vein 0.55–0.74 MBq, γ-counter, %ID/g, 3 mice per time point). Besides, the tissue uptake at 2 h was determined as 1.69 ± 0.18 %ID/g in data set [1] (CNE-1 tumor, 120 min p.i., tail vein 0.55–0.74 MBq, γ-counter, %ID/g, 3 mice per time point) and 4.56 ± 0.67 %ID/g in data set [2] (HEP-2 tumor, 120 min p.i., tail vein 0.55–0.74 MBq, γ-counter, %ID/g, 3 mice per time point). Also, the “uptake in blood and muscle” value in the data set on HEP-2 tumor (60 min p.i.) is given as “low”. Further, in the data set with HEP-2 tumor, the route of excretion entry is recorded as “excreted predominantly via the renal route”. The kidney uptake entry in the data set with HEP-2 tumor (selected organs) is reported as “highest in the selected organs”. Also, in data set [3], the “stability in serum (radio-HPLC)” value is recorded as “stable”.

A word on the tissue uptake: it is the percentage of the injected dose found per gram of tissue.
